Test results: patent publication US20240240160A1, “NOVEL OLIVETOL SYNTHASES FOR C[…]” (priority 2021, published 2024)

Legend:
[1] = test system: AAZ32094.1 from Oncidium hybrid cultivar (SEQ ID NO:2); test: Product inhibition assay with butyryl-CoA and malonyl-CoA; type: biochemical
Procedure: (§1) Assays were performed in a total volume of 50 μL in 100 mM Tris, pH 7.5 buffer containing 100 μM malonyl-CoA; 100 µM hexanoyl-CoA; a malonyl-CoA regenerating system comprising malonyl-CoA synthetase, excess malonate, and ATP; and excess purified olivetolic acid cyclase (OAC). The major product in this assay was olivetolic acid (OLA), and the triketide pentyl diacetic acid lactone (PDAL) was a side product. N-His-tagged purified enzymes were assayed under these assay conditions at enzyme concentrations and reaction times suitable for initial rate measurements of product formation. Reactions were initiated by addition of the PKS, then incubated for 30 min. Subsequently, 10 μL of reaction solution was removed and quenched into 15 volumes of 75% acetonitrile containing 0.1% formic acid and internal standards, then centrifuged to pellet denatured protein. Supernatants were transferred to fresh plates for LC-MS analysis of OLA, olivetol (OL), and PDAL as described in the Method section above.
(§2) Assays were performed as described in Example 3 with the following exception: instead of hexanoyl-CoA (C6), butyryl-CoA (C4) was used as substrate along with malonyl-CoA, in order to evaluate the inhibitory effect of the products with hexanoyl-CoA (i.e., OLA, OL and PDAL) on the activity of the enzymes. Accordingly, the products in this assay were the tetraketides divarinic acid (DVA) and divarinol (DVL) and the triketide propyl diacetic acid lactone (propyl-DAL) (see FIG. 4). The rates to form these products were measured in the presence of various concentrations of OLA, OL, and PDAL.

OLS from C. sativa = target: T1, OLS from C. sativa (Cannabis sativa, UniProt B1Q2B6); test: as above; type: biochemical; conditions: for amount of DVA+DVL formed by the enzyme: at 1 mM of the added product, butyryl-CoA substrate; for enzyme activity: at 2 mM of the added product
T1 construct: made in house
T1 sequence (B1Q2B6 1-385): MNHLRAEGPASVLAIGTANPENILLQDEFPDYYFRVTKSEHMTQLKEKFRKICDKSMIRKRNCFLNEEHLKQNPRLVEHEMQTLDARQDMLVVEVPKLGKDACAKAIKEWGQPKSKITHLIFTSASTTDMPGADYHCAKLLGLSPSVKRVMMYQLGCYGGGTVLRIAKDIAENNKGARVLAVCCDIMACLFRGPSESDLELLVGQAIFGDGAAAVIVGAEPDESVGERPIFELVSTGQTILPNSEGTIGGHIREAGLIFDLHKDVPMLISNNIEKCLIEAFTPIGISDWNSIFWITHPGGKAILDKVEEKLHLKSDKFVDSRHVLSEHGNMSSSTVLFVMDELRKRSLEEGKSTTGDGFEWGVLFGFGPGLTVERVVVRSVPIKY
Procedure: as §1, §2

[2] = test system: QDX46968.1 from Anoectochilus roxburghii (SEQ ID NO:6); test: as above; type: biochemical
Procedure: as §1, §2

[3] = test system: E. coli derivative strain which overexpressed an acyl-CoA synthetase (fadD) gene and expressed an olivetolic acid cyclase (OAC) from Cannabis sativa; test: OL, OLA and PDAL production in E. coli from plasmid-expressed Type-III PKS genes; type: cell-based; conditions: gene on plasmid; for Total: OL + OLA + PDAL; for OL / OLA / PDAL: constitutive promoter, culture spiked with 4 mM hexanoic acid
Procedure: (§3) To test olivetolic acid production in E. coli, strains comprising a putative OLS gene and an OAC gene from C. sativa were inoculated in multi-well plates containing LB supplemented with 1% glucose and appropriate concentrations of antibiotics. After 6 hours of cultivation at 32° C., the cells were transferred with a 10% inoculum to a P-limited seed medium (see Table 2) and cultivated for ˜18 hours at 32° ° C. to reach an OD of 2.0-4.0. The cultures were transferred with a 20% inoculum in a P-minimal medium (see Table 3) supplemented with 2% glucose and appropriate concentrations of antibiotics. After 3 hours of cultivation at 32° C., the culture was spiked with 4 mM hexanoic acid (˜OD 1.5-2.0). The resulting cultures were then harvested at either 3 hours or 21 hours post hexanoic acid spike; a final OD was taken. 300 μL of butyl acetate containing 500 mg/L undecanoic acid was added to each multi-well plate. The plates were then vortexed for 30 minutes at 1500 rpm and centrifuged for 10 minutes at 4500 rpm. 50 μL of organic layer was transferred to a 96-well plate and derivatized with 50 μL of N,O-Bis(trimethylsilyl)trifluoroacetamide (BSTFA). The plate was then incubated at room temperature for 2 hours to allow for complete derivatization. The samples were then run on GC-FID for analytical quantification of olivetolic acid (OLA), olivetol (OL), PDAL, and hexanoic acid.
(§4) Olivetol, PDAL, OLA, HTAL, CBGA and combinations thereof were analyzed by LCMS or LCMS/MS methods using C18 reversed phase chromatography coupled to either EXACTIVE™ (ThermoFisher) or QTRAP® 4500 (Sciex) mass spectrometers.
(§5) For reversed phase LCMS, compounds were identified by their LC retention times and MRM transitions specific to the compounds. LCMS/MS analysis was conducted on a Shimadzu UHPLC system coupled with AB Sciex QTRAP 4500 mass spectrometer. Agilent Eclipse XDB C18 column (4.6×3.0 mm, 1.8 μm) was used with a 1-min gradient elution at 1 mL/min using water containing 0.1% ammonia acetate as mobile phase A and 90% methanol containing 0.1% ammonia acetate as mobile phase B. The LC column temperature was maintained at 45° C. Negative ionization mode was used for all the analytes.
The genes for 20 Type-III PKS enzymes were codon optimized for E. coli and cloned under control of a constitutive promoter into an expression vector (p15a replicon, carbenicillin resistance marker). The 20 plasmids were transformed into an E. coli derivative strain which overexpressed an acyl-CoA synthetase (fadD) gene and expressed an olivetolic acid cyclase (OAC) from Cannabis sativa.
(§6) The in vivo assay procedure and analytical methods were performed as described above.

[4] = test system: E. coli derivative strain which overexpressed an acyl-CoA synthetase (fadD) gene and expressed an olivetolic acid cyclase (OAC) from Cannabis sativa; test: OL, OLA and PDAL production in E. coli from genome-integrated Type-III PKS genes; type: cell-based; conditions: for Total: OL + OLA + PDAL; for OL / OLA / PDAL: constitutive promoter, 4 mM hexanoic acid
Procedure: as §3, §4, §5
Three of the type-III PKS genes from Example 1 were integrated under control of a constitutive promoter into an E. coli derivative strain which overexpressed an acyl-CoA synthetase (fadD) gene and expressed an olivetolic acid cyclase (OAC) from Cannabis sativa.
as §6

[5] = test system: hexanoyl-CoA and malonyl-CoA; test: Specific activity assay of purified type-III polyketide synthases (OLA formation in presence of OAC); type: biochemical; conditions: hexanoyl-CoA and malonyl-CoA in the presence of OAC; FIG. 3
Procedure: In this Example, the specific activities of three previously uncharacterized type-III polyketide synthases (PKS) to form olivetolic acid from hexanoyl-CoA and malonyl-CoA in the presence of olivetolic acid cyclase (OAC) were determined and compared to the olivetol synthase (OLS) from C. sativa.
as §1

[6] = increasing concentrations of the added product
[7] = at 1 mM OLA, butyryl-CoA substrate

CCCCCc1cc(O)cc(O)c1 [OL, olivetol]
effect on formation of the tetraketide products (DVL+DVA) [1, 6]: not inhibited | effect on the triketide product propyl-DAL [1, 6]: decreased | amount of DVA+DVL formed by the enzyme (OLS from C. sativa): 2 µM | enzyme activity (OLS from C. sativa): almost completely inactive | effect on formation of the tetraketide products (DVL+DVA) [2, 6]: not inhibited | effect on the triketide product propyl-DAL [2, 6]: decreased

CCCCCc1cc(O)cc(O)c1C(=O)O [OLA, olivetolic acid]
amount of DVA+DVL formed [1, 7]: about 9 μM | amount of the triketide propyl-DAL [1, 7]: 3 to 5 µM | effect on formation of the tetraketide products (DVL+DVA) [1, 6]: not inhibited, but rather stimulated | effect on the triketide product propyl-DAL [1, 6]: inhibited | amount of DVA+DVL formed by the enzyme (OLS from C. sativa): 1.5 µM | enzyme activity (OLS from C. sativa): almost completely inactive | amount of DVA+DVL formed [2, 7]: about 9 μM | amount of the triketide propyl-DAL [2, 7]: 3 to 5 µM | effect on formation of the tetraketide products (DVL+DVA) [2, 6]: not inhibited, but rather stimulated | effect on the triketide product propyl-DAL [2, 6]: inhibited

CCCCCc1cc(O)cc(=O)o1 [PDAL, pentyl diacetic acid lactone]
effect on activity of the enzyme [1, 6]: not inhibited | inhibition of the activity of OLS from C. sativa (OLS from C. sativa; [6]): inhibitory, but to a somewhat lesser extent | effect on activity of the enzyme [2, 6]: not inhibited

B1: QCO76957.1: Type-III PKS enzyme from Dendrobium officinale (protein)
chain: MPSLESIRKAPRANGFASILAIGRANPENFIEQSTYPDFFFRITNSEHLVDLKKKFQRICDKTAIRKRHFVWNEEFITTNPCLHTFMDKSLDVRQEVAIREIPKLGAKAAAKAIQEWGQPKSRITHLIFCTTSGMDLPGADYQLTQILGLNPNVERVMLYQQGCFAGGTTLRLAKCLAESRKGARVLVVCAETTTVLFRGPSEEHQEDLVTQALFADGASALIVGADPDEAAHERASFVIVSTSQVLLPDSAGAIGGHVSEGGLLATLHRDVPKIVSKNVEKCLEEAFTPFGITDWNSIFWVPHPGGRAILDLVEERVGLKPEKLLVSRHVLAEYGNMSSVCVHFALDEMRKRSAIEGKATTGEGLEWGVVFGFGPGLTVETVVLRSVPL
modifications: Dendrobium officinale; (1)..(390) QCO76957.1
Total [3]: 2095 µM | levels of OLA relative to the E. coli strain with OLS from C. sativa [3]: over two-fold | OL [3]: 579 µM | OLA [3]: 754 µM | PDAL [3]: 761 µM | products produced by strains with chromosomally expressed enzyme [4]: produced olivetol (OL), olivetolic acid (OLA) and pentyl diacetic acid lactone (PDAL) | Total [4]: 483 µM | OL [4]: 178 µM | OLA [4]: 223 µM | PDAL [4]: 82 µM

B2: AAZ32094.1: Type-III PKS enzyme from Oncidium hybrid cultivar (protein)
chain: MPSLESVKNAKRAEGFASILAIGRANPEHFIEQSSYPDFFFRVTNSEHLVALKKKFQRICDKTAIRKRHFAWNEELLTTNSCFQTFMGNSLNVRQEFAIREIPKLGAQAANKAIQEWGQPKSRITHLIFCTTSGMDLPGADYQLTEILGLNPNVERVMLYQQGCFAGGTTLRLAKCLAESRKGARVLVVCAETTTVLFRAPSEEHQDDLVTQALFADGASALIVGADPDEAAHERASFIIVSTSQVLLPDSAGAIGGHVSEGGLLATLHRDVPQIVSKNVGKCLEEAFTPLGISDWNSIFWVPHPGGRAILDQIEERVGLKPEKLFISRHVLAEYGNMSSVCVHFALDEMRKRSAKEGKATTGEGLDWGVLFGFGPGLTVETVVLHSVPVTN
modifications: Oncidium hybrid cultivar; (1)..(392) AAZ32094.1
Total [3]: 1781 µM | levels of OLA relative to the E. coli strain with OLS from C. sativa [3]: over two-fold | OL [3]: 672 µM | OLA [3]: 751 µM | PDAL [3]: 358 µM | products produced by strains with chromosomally expressed enzyme [4]: produced olivetol (OL), olivetolic acid (OLA) and pentyl diacetic acid lactone (PDAL) | Total [4]: 1038 µM | OL [4]: 355 µM | OLA [4]: 534 µM | PDAL [4]: 149 µM | specific activity to form olivetolic acid compared with OLS from C. sativa [5]: higher specific activities

B3: AIM58716.1: Type-III PKS enzyme from Cymbidium hybrid cultivar (protein)
chain: MPSLESVKKSNRADGFASILAIGRANPENFIEQSTYPDFFFRVTNSEHLVNLKKKFQRICDKTAIRKRHFVWNEELLNANPCLGTFMDNSLNVRQEFAIREIPKLGAEAATKAIQEWGQPKSRITHLIFCTTSGMDLPGADYQLTQILGLNPNIERVMLYQQGCFAGGTTLRLAKCLAESRKGARVLVVCAETTAVLFRAPSEEHQDDLVTQALFADGASALIVGADPDETAHERASFVIVSTSQVLLPDSAGAIGGHVSEGGLIATLHRDVPQIVSKNVGKCLEEAFTPLGISDWNSIFWVPHPGGRAILDQVEERVGLKPEKLIVSRHVLAEYGNMSSVCVHFALDEMRKRSKKEGKATTGEGLDWGVLFGFGPGLTVETVVLHSVPI
modifications: Cymbidium hybrid cultivar; (1)..(390) AIM58716.1
Total [3]: 1045 µM | OL [3]: 427 µM | OLA [3]: 436 µM | PDAL [3]: 181 µM | products produced by strains with chromosomally expressed enzyme [4]: produced olivetol (OL), olivetolic acid (OLA) and pentyl diacetic acid lactone (PDAL) | Total [4]: 927 µM | OL [4]: 249 µM | OLA [4]: 472 µM | PDAL [4]: 206 µM
